The source of these data is the MegaScale stability set (Tsuboyama et al. 2023).

B1: 2M8U (parent)
chain: TKAQVIEAFKVFDRDGNGYVTVDYLRKVLNELGDMMPADEIEEMIYEADPQNSGYVQYETFVGMLFL

This data set covers variants of B1. As to the kind of experiment: folding stability dG (cDNA display proteolysis); higher = more stable. To be noted: PBS, room temperature.
As for TKAQVIEAFKVLDRDGNGYVTVDYLRKVLNELGDMMPADEIEEMIYEADPQNSGYVQYETFVGMLFL [F12L], the “folding stability dG” value was found to be 3.08 kcal/mol.

Regarding TKAQVIEAFKVFDRDGNGYVTVDYLRKVLNELYDMMPADEIEEMIYEADPQNSGYVQYETFVGMLFL [G33Y], the “folding stability dG” value was found to be 3.48 kcal/mol.

As for TKAQVIEAFKVFDRDGNGYVTVDYLRKVLNELGDMMPADEIEEMDYEADPQNSGYVQYETFVGMLFL [I45D], the “folding stability dG” value was determined as 2.39 kcal/mol.

TKAQVIEAFKVFDRDGNGYVTVDYLRKVLNELGDMMPADEIEEMAYEADPQNSGYVQYETFVGMLFL [I45A]: the “folding stability dG” value was 2.37 kcal/mol.

Consider TKAQVIEAFKVFDRDGNGYVTVDYLRKVLNELGDMMPADEIEEMWYEADPQNSGYVQYETFVGMLFL [I45W], for which the “folding stability dG” value came out at 2.6 kcal/mol.

TKAQVIEAFKVFDRDGNGYVTVDYLRKVLNELGDMMPADEIEEMTYEADPQNSGYVQYETFVGMLFL [I45T]: the “folding stability dG” value was 2.13 kcal/mol.

TKAQVIEAFKVFDRDGNGYVTVDYLRKVLNELGDMMPADEIEEMIYEADCQNSGYVQYETFVGMLFL [P50C]: the “folding stability dG” value stood at 3.11 kcal/mol.

As to TKAQVIEAFKVFDRDGNGYVTVDYLRKVLNELGDMMPADEIEEMIYEADPQNSGYVQYEMFVGMLFL [T60M], the “folding stability dG” value was 3.44 kcal/mol.

Turning to TKAQVIEAFKVFDRDGNGYVTVDYPRKVLNELGDMMPADEIEEMIYEADPQNSGYVQYETFVGMLFL [L25P], the “folding stability dG” value stood at 1.25 kcal/mol.

In the case of TKAQVIEAFKVFDRDGNGYVTVDYYRKVLNELGDMMPADEIEEMIYEADPQNSGYVQYETFVGMLFL [L25Y], the “folding stability dG” value was found to be 1.83 kcal/mol.

With TKAQVIEAFKVFDRDGNGYVTVDYLRKVLNELGDMMPADEIEECIYEADPQNSGYVQYETFVGMLFL [M44C], the “folding stability dG” value is 3.6 kcal/mol.

Regarding TKAQVIEAFKVFDRDGNGYVTVDYLRKVLNELGDMMPADEIEEMIYEKDPQNSGYVQYETFVGMLFL [A48K], the “folding stability dG” value stood at 2.63 kcal/mol.

TKAQVIEAFKVFDRDGNGYVTVDYLRKVLNELGDMMPADEIEEMIYEQDPQNSGYVQYETFVGMLFL [A48Q]: the “folding stability dG” value was found to be 3.37 kcal/mol.

As for TKAQVIEAFKVFDRDGNGYVTVDYLRKVLNELGDMMPADEIEEMIYEDDPQNSGYVQYETFVGMLFL [A48D], the “folding stability dG” value is 2.1 kcal/mol.

For the variant TKAQVIEAFKVFDRDGNGYVTVDYLRKVLNELGDMKPADEIEEMIYEADPQNSGYVQYETFVGMLFL [M36K], the “folding stability dG” value was 3.66 kcal/mol.

Take TKAQVIEAFKVFDRDGNGYVTVDYLRKVLNELGDMMKADEIEEMIYEADPQNSGYVQYETFVGMLFL [P37K]: the “folding stability dG” value was found to be 3.7 kcal/mol.

Turning to TKAQVIEAFKVFDRDGNGYVTVDYLRKVLNELGDMMAADEIEEMIYEADPQNSGYVQYETFVGMLFL [P37A], the “folding stability dG” value came to 3.1 kcal/mol.

As for TKAQVIEAFKVFDRDGNGYVTVDYLRKVLNELGDMMEADEIEEMIYEADPQNSGYVQYETFVGMLFL [P37E], the “folding stability dG” value was found to be 3.34 kcal/mol.

Take TKAQVIIAFKVFDRDGNGYVTVDYLRKVLNELGDMMPADEIEEMIYEADPQNSGYVQYETFVGMLFL [E7I]: the “folding stability dG” value amounted to 3.07 kcal/mol.

As for TKAQVIEAFKVFDRDGNGYVTVDYLRKVLNELGDMMPADEIEEMIYEADPQNSGWVQYETFVGMLFL [Y55W], the “folding stability dG” value came to 3.55 kcal/mol.

As for TKAQVIEAFKVFARDGNGYVTVDYLRKVLNELGDMMPADEIEEMIYEADPQNSGYVQYETFVGMLFL [D13A], the “folding stability dG” value worked out at 1.97 kcal/mol.

As for TKAQVIEAFPVFDRDGNGYVTVDYLRKVLNELGDMMPADEIEEMIYEADPQNSGYVQYETFVGMLFL [K10P], the “folding stability dG” value is 2.08 kcal/mol.

As for TKAQVIEAFEVFDRDGNGYVTVDYLRKVLNELGDMMPADEIEEMIYEADPQNSGYVQYETFVGMLFL [K10E], the “folding stability dG” value worked out at 3.02 kcal/mol.

On to TKAQVIEAFKVFDRDGNGYVTVDYLRKVLNELGDMMPADEIEEMIYNADPQNSGYVQYETFVGMLFL [E47N], for which the “folding stability dG” value was 3.52 kcal/mol.

In the case of TKAQVIEAFKVFDRDGNGYVTVMYLRKVLNELGDMMPADEIEEMIYEADPQNSGYVQYETFVGMLFL [D23M], the “folding stability dG” value was 3.5 kcal/mol.

For the variant TKAQVIEAFKVFDRDGNGYVTVYYLRKVLNELGDMMPADEIEEMIYEADPQNSGYVQYETFVGMLFL [D23Y], the “folding stability dG” value was 4.04 kcal/mol.

Take TKAQVIEAFKVFDRDGNGYVTVDYLRKVLAELGDMMPADEIEEMIYEADPQNSGYVQYETFVGMLFL [N30A]: the “folding stability dG” value was 3.62 kcal/mol.

As to TKAQVIEAFKVFDRDGNGYVTVDYLRKVLNELGDMMPADEIEEMIYEADPQNSGYVQYETFVYMLFL [G63Y], the “folding stability dG” value was determined as 3.48 kcal/mol.

Take TKAQVIEAFKVFDRDGNGYVTVDYLRKVLNELGDMMPADEIEEMIYEADPQNSGYVQYETFVRMLFL [G63R]: the “folding stability dG” value was determined as 3.54 kcal/mol.

With TKAQVIEAFKVFDRDGNGYVTVDYLRKVLNELGDMMPADSIEEMIYEADPQNSGYVQYETFVGMLFL [E40S], the “folding stability dG” value came out at 3.7 kcal/mol.

For TKAQVIEAFKVFDRDGNGYVTVDYLRKVLNELGDMMPADWIEEMIYEADPQNSGYVQYETFVGMLFL [E40W], the “folding stability dG” value was determined as 3.75 kcal/mol.

TKAQVIEAFKVFDRDGNGYVTVDYLRKVLNELGDMMPADAIEEMIYEADPQNSGYVQYETFVGMLFL [E40A]: the “folding stability dG” value was 3.65 kcal/mol.

For TKAQVIEAFKVFDRDGNGYVTVDYLRKVLNELGDMMPADEIEEMIYEADPQNSGYDQYETFVGMLFL [V56D], the “folding stability dG” value was 2.39 kcal/mol.

Take TKAQVIEAFKVFDRDGNGYVTVDYLRKVLNELGDIMPADEIEEMIYEADPQNSGYVQYETFVGMLFL [M35I]: the “folding stability dG” value amounted to 3.69 kcal/mol.

For TKAQVIEAFKVFDRDGNGYVTVDYLRKVLNELGDMMPADEIEAMIYEADPQNSGYVQYETFVGMLFL [E43A], the “folding stability dG” value was 3.81 kcal/mol.

Turning to TKAQVIEAFKVFDRDLNGYVTVDYLRKVLNELGDMMPADEIEEMIYEADPQNSGYVQYETFVGMLFL [G16L], the “folding stability dG” value is 2.97 kcal/mol.

As to KKAQVIEAFKVFDRDGNGYVTVDYLRKVLNELGDMMPADEIEEMIYEADPQNSGYVQYETFVGMLFL [T1K], the “folding stability dG” value amounted to 3.48 kcal/mol.

As to TKAQVGEAFKVFDRDGNGYVTVDYLRKVLNELGDMMPADEIEEMIYEADPQNSGYVQYETFVGMLFL [I6G], the “folding stability dG” value was 2.34 kcal/mol.

With TKAQVMEAFKVFDRDGNGYVTVDYLRKVLNELGDMMPADEIEEMIYEADPQNSGYVQYETFVGMLFL [I6M], the “folding stability dG” value worked out at 3.42 kcal/mol.

Turning to TKAQVYEAFKVFDRDGNGYVTVDYLRKVLNELGDMMPADEIEEMIYEADPQNSGYVQYETFVGMLFL [I6Y], the “folding stability dG” value worked out at 2.56 kcal/mol.
